According to the DeepSol protein solubility set:

Assay: soluble on expression in E. coli; label from the status in PepcDB or PDB records

Sequence	soluble on expression in E. coli
MIETPYYLIDKAKLTRNMERIAHVREKSGAKALLALKCFATWSVFDLMRDYMDGTTSSSLFEVRLGRERFGKETHAYSVAYGDNEIDEVVSHADKIIFNSISQLERFADKAAGIARGLRLNPQVSSSSFDLADPARPFSRLGEWDVPKVERVMDRINGFMIHNNCENKDFGLFDRMLGEIEERFGALIARVDWVSLGGGIHFTGDDYPVDAFSARLRAFSDRYGVQIYLEPGEASITKSTTLEVTVLDTLYNGKNLAIVDSSIEAHMLDLLIYRETAKVLPNEGSHSYMICGKSCLAGDVFGEFRFAEELKVGDRISFQDAAGYTMVKKNWFNGVKMPAIAIRELDGSVRTVREFTYADYEQSLS	soluble
SHSKLRIKKEIEPIVSALTFLSQGQSAALNEKGNFSEIKTALNETSHILEESNMMKEQWIRGVSHDLRNPLMLISGYTSQLEQQYGHGKQTEQIENQIQNMKEMISNLNLSYLLDNQKRHSKFSSLDLAVVLRSVIADILNNYETVILHFDLPTEAVLVKGDATLLERAFRNLLLNSIKHSGSNQIDLTYQLFDNKVIIIIADKGTITAQKIVELNQKSTNYESHGMGTVITKQIIKLHQGETVFSDNHPGLKVTIVLPVTDEF	not soluble
MGSDKIHHHHHHDEINKDHNHTTAVPAKMILTDVMTSTAFSVVSGDFNLYGGMYVEHETGSHNQFYYAETRSSCTSASTFNNSWGGTYSTLKDALISVKVAEEEQNFITKGIAELFVAYNLAILTDMYGDTPWKEACDYTVSMTPAIDKQEEIYKDIMAYVDAAIEDLQKPDLTSLSNQDLIYKGDASAWLKTAYGLKARYTMRLMGRSADVKGDMEKVLDYISKSYTSAAEQCSYAMYGVGVNINPFFGVFYSRLGEVASRSMFDKLNERNDPRIRRCYVEANSQTMIASKDDPLLNLAHNGDLVQSQLEYTVSMFCAAQTAPTHILSYHEVLFLKAEALCRLNRKDEAKAVLKEAVVAGMANMEVNIKSALASDYWGGFLNVTNEVTPEEAASYFDENVVPLFDANPLKETMIQKYISFWNADGESTECYNDVRRLKSLGEDIYGLQNPGKFPLRCPYGNDDTTTNPNIQAAYGDGQYVFTENVWWAGGTR	not soluble
QRHADLIAARAGRPVTITAVCARDRSKNRDADLSGYAWETDAVALAQRADIDVFVEVMGGSEGAARASTEAALAAGKDVVTANKALLAHHGQALAEMAEAAGLAIRFEAAVAGGIPVIKALTEGLAGNQMRRVMGVMNGTCNYILTR	not soluble
MELVSVAALAENRVIGRDGELPWPSIPADKKQYRSRVADDPVVLGRTTFESMRDDLPGSAQIVMSRSERSFSVDTAHRAASVEEAVDIAASLDAETAYVIGGAAIYALFQPHLDRMVLSRVPGEYEGDTYYPEWDAAEWELDAETDHEGFTLQEWVRSASSR	soluble
MGSDKIHHHHHHMLMETTRLLDIRSMSVEFPGVKALDQVDFTLNRGEIVALLGENGAGKSTLIKALTGVYHRSSGDIILDGIAINPVNTAHAQSLGIGTVYQEVNLLPNLSVAANLFIGREPTRWGIVDQHKILLQAEALLLNYGLAIDVSHPLGNYSIAVQQIVAIARAVDLSAKVLILDEPTASLDAKEVDMLLDILRKLRDRGIGMIFVTHFLDQVYRISDRITVLRNGRLVGTLPTAELPRIELVQMMLGHSFDETLLKRGEHSDVSGEPIVQFKHYGRRGSINDFELSVRPGEIVGLAGLLGSGRTETAQLIFGINVPDAGEAWVDGKKINIRTPRAAGKLGFGYCPEDRKTDGIVGAATVRENIILALQAQRGWLKPISLREQTRIAEKFISLLGIRTPSAEQEIQYLSGGNQQKVLLSRWLATEPRFLILDEPTRGIDVGAHAEIIRLIEKLCEQGMALLVISSELEELTGYADRIIVLRDRQHVAHLEHSEISVAAVMQAIAVQTGAADDRQ	not soluble
MQKVCEKRIDSVVASAVEGSGMFYAVRFEPPPSKTCFDVTLKTYGPPYTEYIVTVAIPPKFPFSPPAITCKTDKNMKFLFLEENQWKPSTGIVAVLIEACSVISRRDLVPRAPVLPRIRPPQARTPTSASPAKSPQKAD	not soluble
GMQLTSENYYSQEANKEYMSVSGYKDFAGTYGKMPCEFYGMEKLNGRWEDEKSTALLVGSYVDSYFEGSLDQFKKDNPEIFTQKGELKANFKQAEEIIARIERDEYFMKYMSGQKQVIMTGELFGAKWKIKMDSYIPGVAIVDLKVMASITDLKWVKDIGYLDFVRYWGYDIQGAVYQEIVRQNTGEKLPFFIAGATKQTEPDIRIIHVTDNYLQEALHMVEMNMPRILRVKNGEVEPDRCELCDCCRHNRVLKKPISIMDLTAGI	soluble
SEACVSVTSSILSSMDPTVDPCHDFFSYACGGWIKANPVPDGHSRWGTFSNLWEHNQAIIKHLLENSTASVSEAERKAQVYYRACMNETRIEELRAKPLMELIERLGGWNITGPWAKDNFQDTLQVVTAHYRTSPFFSVYVSADSKNSNSNVIQVDQSGLGLPSRDYYLNKTENEKVLTGYLNYMVQLGKLLGGGDEEAIRPQMQQILDFETALANITIPQEKRRDEELIYHKVTAAELQTLAPAINWLPFLNTIFYPVEINESEPIVVYDKEYLEQISTLINTTDRCLLNNYMIWNLVRKTSSFLDQRFQDADEKFMEVMYGTKKTSLPRWKFCVSDTENNLGFALGPMFVKATFAEDSKSIATEIILEIKKAFEESLSTLKWMDEETRKSAKEKADAIYNMIGYPNFIMDPKELDKVFNDYTAVPDLYFENAMRFFNFSWRVTADQLRKAPNRDQWSMTPPMVNAYYSPTKNEIVFPAGILQAPFYTRSSPKALNFGGIGVVVGHELTHAFDDQGREYDKDGNLRPWWKNSSVEAFKRQTECMVEQYSNYSVNGEPVNGRHTLGENIADNGGLKAAYRAYQNWVKKNGAEHSLPTLGLTNNQLFFLGFAQVWCSVRTPESSHEGLITDPHSPSRFRVIGSLSNSKEFSEHFRCPPGSPMNPPHKCEVW	soluble
MMYRIRNWLVATLLLLCAQVGAATLSDIQVSNGNQQARITLSFIGDPDYAFSHQSKRTVALDIKQTGVIQGLPLLFSGNNLVKAIRSGTPKDAQTLRLVVDLTENGKTEAVKRQNGSNYTVVFTINADAPPPPPPPPVVVKRVETPTVVAPRVSEPARNPFKTESNRTTGVISSNTVTRPAARATANNGDKIIIAIDAGHGGQDPGAIGPGGTREKNVTIAIARKLRTLLNDDPMFKGVLTRDGDYFISVMGRSDVARKQNANFLVSIHADAAPNRSATGASVWVLSNRRANSEMASWLEQHEKQSELLGGAGDVLANSQSDPYLSQAVLDLQFGHSQRVGYDVATSMISQLQRIGEIHKRRPEHASLGVLRSPDIPSVLVETGFISNNSEERLLASDDYQQQLAEAIYKGLRNYFLAHPMQSAPQGATAQTASTVTTPDRTLPN	not soluble
MGSDKIHHHHHHMRNPKPQEWKTEDYSQKKIADYKAFNFVDGEGVRNSLYVSGCLFACEGCFNKAVQNFNYGTPFTESLMNQIIEDLSHDYVQGLTLLGGEPFLNTDVCLSVVKRVRETFGSAKDIWSWSGYTFEELLLETPDKLELLHSIDILVDGRFELAKRNLNLQFRGSSNQRIIDVPKSLAAGKAVIWEKCHDAETSYEQIKKSI	not soluble
MTAMLSMACRRAVRAGAHCDEGGHVKAFDYPDSMNNKPVPIVLRRTSIGLILFILPAMLIGCSRVPVKTQPKPASVNVWPLTTPANPEAANEVVMRALSLVGTPYRFGGNTPESGFDCSGLVSYVYRDALDLRLPRTSYELAAVQGPKIDAEQLTTGDLVFFGSARSVTHVGIYLSEGRFVHAPSSGGTVRLDRLDTPYWRDHYTGAKRVLRIIEAKVSMVFTDKCHLTFTHYGEESAQAALHTYFNIGDINQVEVQGLPETCFNSLNQQQENVPSPRHISENVDCIYSAENMQNQILDKSFNRTIALHHHNASQFVLWNPWHKKTSGMSETGYQKMLCLETARIHHLLEFGESLSVEISLKG	soluble
MILLIGATGNIGLPIVKSLQKKGAEVRLLVHNEKSSAKIQALGQMEIFIGDFRNDSDLRESMKGCSSVFHVVPPFTKDEAEIGYRVIENARHAGVEHIVFNSVLHPQLRKMEHHAQKLLVEEAVIESGLAFNIIQPAMLMQNLLMVWRTIRENGIYPVISSPDKKMSLIDSEDIGEAVANILTDPSLRNATFELAGSDLLTYKEMALIISEELNQPVKVVPVDDKGREELARKQGMSSYAIHAFLKMAKHYDEHGFSGSNPLVLTSILKRPPNSYRDFIRRLIAEDGGI	not soluble
MIIPALDLIDGTVVRLHQGDYGKQRDYGNDPLPRLQDYAAQGAEVLHLVDLTGAKDPAKRQIPLIKTLVAGVNVPVQVGGGVRSEEDVAALLEAGVARVVVGSTAVKSQDMVKGWFERFGADALVLALDVRIDEQGNKQVAVSGWQENSGVSLEQLVETYLPVGLKHVLCTDISRDGTLAGSNVSLYEEVCARYPQVAFQSSGGIGDIDDVAALRGTGVRGVIVGRALLEGKFTVKEAIACWQNA	soluble
MCARIQQLPVFFIFILYGSCATTKRNIYVLAINKLMEQQIRKYESFNDLPADCKKLFDSGEKDSFDLSRDWFLLLETTVIRQTKEICIFTLEIEGVTQGIWPTLLQKKGKLSLRQISSFTCFYSSLYQPLISSSLTVDKLADCLRWILSDTRTDVLRFDIMDPSQSSFNLHEQALKKIGFKTDRFFCWGNWYLPVNNQPFSVYLQNLSSRVRNTLERRKKKFLAGGHGKLEILTTHDKLPIAIQAWEKIYNASWKIPEPYPEFMPSLISLCAAKGWLRLGIAYYDEEPIAAQLWIVNQGRAAIYKLAYDEKFAHLSPGTILTAHLMQHAIDVDKVHEVDYLTGDDAYKKDWMSHRRERLGLVAYNLRSFWGLIGISKHIAGKIRKKILKSLK	not soluble
MRGSHHHHHHTDPALRANITPFPTLSPATIDAINVIGQWLAQDDFSGEVPYQADCVILAGNAVMPTIDAACKIARDQQIPLLISGGIGHSTTFLYSAIAQHPHYNTIRTTGRAEATILADIAHQFWHIPHEKIWIEDQSTNCGENARFSIALLNQAVERVHTAIVVQDPTMQRRTMATFRRMTGDNPDAPRWLSYPGFVPQLGNNADSVIFINQLQGLWPVERYLSLLTGELPRLRDDSDGYGPRGRDFIVHVDFPAEVIHAWQTLKHDAVLIEAMESRSLRGLCGR	soluble
MDTKVVPKISEKICEKFANIINKKPQKKGKEYKIGVDLGTANVVVAVLNENNEPVAGAMKSAQVVKDGVVVDFVGAKEIVKRMVDFLNEELEGKLRVAACAIPPGTGEGVSKATKYVVEEAGLEVIKVVDEPTAAAKLLEIMDGIVVDIGGGTTGISVLKDGKVVYVADEPTGGTHFTLVLAGHFNISFEEAEKIKLDVQRQKLLTPILKPCMEKVAEIIKRHTFSFDNIDTIYLVGGASALHGLKEVVENTTRKKVIVPQYPIFITPLGIALSCEKG	not soluble
MSSMTTTDNKAFLNELARLVGSSHLLTDPAKTARYRKGFRSGQGDALAVVFPGSLLELWRVLKACVTADKIILMQAANTGLTEGSTPNGNDYDRDVVIISTLRLDKLHVLGKGEQVLAYPGTTLYSLEKALKPLGREPHSVIGSSCIGASVIGGICNNSGGSLVQRGPAYTEMSLFARINEDGKLTLVNHLGIDLGETPEQILSKLDDDRIKDDDVRHDGRHAHDYDYVHRVRDIEADTPARYNADPDRLFESSGCAGKLAVFAVRLDTFEAEKNQQVFYIGTNQPEVLTEIRRHILANFENLPVAGEYMHRDIYDIAEKYGKDTFLMIDKLGTDKMPFFFNLKGRTDAMLEKVKFFRPHFTDRAMQKFGHLFPSHLPPRMKNWRDKYEHHLLLKMAGDGVGEAKSWLVDYFKQAEGDFFVCTPEEGSKAFLHRFAAAGAAIRYQAVHSDEVEDILALDIALRRNDTEWYEHLPPEIDSQLVHKLYYGHFMCYVFHQDYIVKKGVDVHALKEQMLELLQQRGAQYPAEHNVGHLYKAPETLQKFYRENDPTNSMNPGIGKTSKRKNWQEVE	soluble
